According to patent publication US20250381225A1 (DEVELOPMENT CENTER FOR BIOTECHNOLOGY, published 2025):
Residue numbers refer to the chain shown, from its start.

B1: chimeric anti-human PD-1 2B6 antibody (antibody, V domains shown)
VH: EVKLVESGGGLVKPGGSLKLSCAAAGFTFSSYTMSWVRQTPAKRLEWVATISGGGANIYYPDSVKGRFTISRDNARNTLYLQMSSLRSEDTAMYYCVSPYYAIDFWGQGTSVTVSS
VL: DTVMTQSDKFMSTSVGDRVSITCKASQDVGSAVAWYQQKPGQSPKLLIYWASTRHTGVPDRFTGSGSGTDFTLTISNVQSEDLADYFCQQYSTYTWTFGGGTKLEIK
notes: also called mAb 2B6; M-M
B2: recombinant humanized 2B6 HuB1-scFv-Fc (Fc fusion)
scFv: EVQLVESGGGLVQPGGSLRLSCAASGFTFSSYTMSWVRQAPGKGLEWVATISGGGANIYYPDSVKGRFTISRDNSKNTLYLQMNSLRAEDTAVYYCVSPYYAIDFWGQGTLVTVSSGGGGSGGGGSGGGGSDIQMTQSPSSLSASVGDRVTITCKASQDVGSAVAWYQQKPGKAPKLLIYWASTRHTGVPSRFSGSGSGTDFTLTISSLQPEDFATYYCQQYSTYTWTFGQGTKVEIK
notes: Both carry the same printed name and are kept as one molecule; also called 286 HuB1-scFv-Fc; PD-1^2B6 scFv-Fc; not shown: lim
B3: humanized antibody 2B6 HdB1 Hd (antibody, V domains shown)
VH: EVQLVESGGGLVQPGGSLRLSCKASGFTFSSYTMSWVRQAPGKGLEWVATISGGGANIYYPDSVKGRFTISRDNSKNTLYLQMNSLRAEDTAVYYCVSPYYAIDFWGQGTLVTVSS
VL: DIQMTQSPSSLSASVGDRVTITCKASQDVGSAVAWYQQKPGKAPKLLIYWASTRHTGVPSRFSGSGSGTDFTLTISSLQPEDFATYYCQQYSTYTWTFGQGTKVEIK
notes: Heavy chain HdB1 with light chain Hd
B4: humanized 2B6 4D5 (2B6-HdHd) (antibody, V domains shown)
VH: B3 VH with N74D, V97A, S98R
VL: B3 VL
notes: Heavy chain Hd with light chain Hd
B5: humanized antibody 2B6 HuB1 Hd (antibody, V domains shown)
VH: B3 VH with K23A
VL: B3 VL
notes: Heavy chain HuB1 with light chain Hd

Legend:
[1] = molecular target: human PD-1 on PD-1 Effector Cells (Jurkat T cells) (human, UniProt Q15116 25-288); assay: cell-based or functional assay
Chain of human PD-1 on PD-1 Effector Cells (Jurkat T cells) (Q15116 25-288): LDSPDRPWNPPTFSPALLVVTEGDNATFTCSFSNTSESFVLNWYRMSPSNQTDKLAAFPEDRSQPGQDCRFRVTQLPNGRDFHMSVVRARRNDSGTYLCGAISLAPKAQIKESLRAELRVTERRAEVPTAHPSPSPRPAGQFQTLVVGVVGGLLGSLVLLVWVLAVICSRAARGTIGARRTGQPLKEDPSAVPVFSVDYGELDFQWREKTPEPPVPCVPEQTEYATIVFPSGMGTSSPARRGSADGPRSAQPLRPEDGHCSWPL

[2] = molecular target: T1, recombinant PD-1 protein (UniProt Q15116 25-167, limits assumed); assay: ELISA, recombinant PD-1 coated at 0.1 ug/well, serially diluted antibody
T1 construct: It may or may not be the same reagent as PD1-hFc
T1 sequence (Q15116 25-167 limits assumed): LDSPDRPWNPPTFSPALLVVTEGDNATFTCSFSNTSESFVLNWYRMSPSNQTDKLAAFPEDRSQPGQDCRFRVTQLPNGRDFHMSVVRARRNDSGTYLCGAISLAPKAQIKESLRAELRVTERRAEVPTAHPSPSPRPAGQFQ
Method: Antibodies of the invention were evaluated for specific binding to PD-1 using an enzyme-linked immunosorbent assay (ELISA). Briefly, recombinant PD-1 protein was immobilized on a 96-well ELISA plate at 0.1 μg/well. The chimeric anti-human PD-1 2B6 antibody was serially diluted and incubated with the coated PD-1, followed by detection with a horseradish peroxidase (HRP)-conjugated goat anti-mouse IgG secondary antibody. The binding was visualized using 3,3′,5,5′-tetramethylbenzidine (TMB) as a substrate, and the optical density (OD) was measured at 405 nm to assess the binding activity.

[3] = molecular target: T2, PD1-hFc (UniProt Q15116 25-167); assay: ELISA on coated PD1-hFc, anti-human kappa HRP, one site-specific binding fit
T2 construct: ELISA coat at 1 ug/ml; not shown: hFc (human Fc)
T2 sequence (Q15116 25-167): as the sequence (Q15116 25-167 limits assumed) above
Method: ELISA plates were coated with PD1-hFc (1 ug/ml) and blocked with blocking buffer (5% milk dissolved in PBS). The antibodies from 66.67 nM to […] dilute (4× fold dilution) were then added to the plates. The binding affinity of tested antibody to PD1-hFc was determined via adding goat anti-human KAPPA HRP IgG (1:3,000 dilution), and binding curve and KD were determined by software using one site-specific binding for nonlinear fit methods.

[4] = molecular target: T2, PD1-hFc; assay: ELISA on coated PD1-hFc; scFv-Fc expressed in FreeStyle 293 cells
[5] = molecular target: T2, PD1-hFc; assay: ELISA on PD-1; protein purified from supernatant of 293T cells transfected with the CAR plasmid
Method: To evaluate the expression of the present CAR construct, the plasmid encoding the CAR molecule was transfected into 293T cells. The protein was harvested from the supernatant of the cultured cells, followed by purifying and quantifying via measuring OD260/280. On the other hand, the binding affinity of the purified protein towards PD-1 was determined by ELISA.

Binder | Kd [3] | also measured
B1 | 0.495 nM | NFAT-RE-mediated luminescence (PD-1/PD-L1 Blockade Bioassay), EC50 [1]: 3.88 nM; Kd [2]: 0.809 nM
B2 | – | Kd [4]: 2.58 nM; Kd [5]: 1.75 nM
B3 | 0.368 nM | –
B4 | 179 nM | –
B5 | 0.403 nM | –
